Assay results as given in patent publication US20160264649A1.

How the values were obtained:
Experiment in all cases: cell-based or functional assay
[1] = biological target: HIV-1 Env of isolate MGRM-D-005 (subtype D) (HIV-1)
[2] = biological target: HIV-1 Env of isolate MGRM-D-002 (subtype D) (HIV-1)
[3] = biological target: HIV-1 Env of isolate MGRM-D-003 (subtype D) (HIV-1)
[4] = biological target: HIV-1 Env of isolate 92WR024 (subtype A) (HIV-1)
[5] = biological target: HIV-1 Env of isolate MGRM-AE-003 (subtype AE) (HIV-1)
[6] = biological target: HIV-1 Env of isolate MGRM-D-026 (subtype D) (HIV-1)
[7] = biological target: HIV-1 Env of isolate MGRM-F1-008 (subtype F) (HIV-1)
[8] = biological target: HIV-1 Env of isolate MGRM-D-029 (subtype D) (HIV-1)
[9] = biological target: HIV-1 Env of isolate MGRM-D-021 (subtype D) (HIV-1)
[10] = biological target: HIV-1 Env of isolate MGRM-AE-005 (subtype AE) (HIV-1)
[11] = biological target: HIV-1 Env of isolate MGRM-D-019 (subtype D) (HIV-1)
[12] = biological target: HIV-1 Env of isolate MGRM-D-018 (subtype D) (HIV-1)
[13] = biological target: HIV-1 Env of isolate CMU02 (subtype AE) (HIV-1)
[14] = biological target: HIV-1 Env of isolate MGRM-F1-016 (subtype F) (HIV-1)
[15] = biological target: HIV-1 Env of isolate MGRM-F1-017 (subtype F) (HIV-1)
[16] = biological target: HIV-1 Env of isolate MGRM-AE-007 (subtype AE) (HIV-1)
[17] = biological target: HIV-1 Env of isolate 92UG037 (subtype A) (HIV-1)
[18] = biological target: HIV-1 Env of isolate MGRM-AE-002 (subtype AE) (HIV-1)
[19] = biological target: HIV-1 Env of isolate 94 KE 105 (subtype AC) (HIV-1)
[20] = biological target: HIV-1 Env of isolate MGRM-AE-006 (subtype AE) (HIV-1)
[21] = biological target: HIV-1 Env of isolate MGRM-F1-006 (subtype F) (HIV-1)
[22] = biological target: HIV-1 Env of isolate MGRM-F1-014 (subtype F) (HIV-1)
[23] = biological target: HIV-1 Env of isolate MGRM-F1-023 (subtype F) (HIV-1)
[24] = biological target: HIV-1 Env of isolate MGRM-D-020 (subtype D) (HIV-1)
[25] = biological target: HIV-1 Env of isolate 92WR021 (subtype A) (HIV-1)
[26] = biological target: HIV-1 Env of isolate 93UG077 (subtype A) (HIV-1)
[27] = biological target: HIV-1 Env of isolate MGRM-AE-008 (subtype AE) (HIV-1)
[28] = biological target: HIV-1 Env of isolate 92WR009 (subtype A) (HIV-1)
[29] = biological target: HIV-1 Env of isolate MGRM-F1-010 (subtype F) (HIV-1)
[30] = biological target: HIV-1 Env of isolate MGRM-D-028 (subtype D) (HIV-1)
[31] = biological target: HIV-1 Env of isolate 92UG114 (subtype D) (HIV-1)
[32] = biological target: HIV-1 Env of isolate MGRM-F1-013 (subtype F) (HIV-1)
[33] = biological target: HIV-1 Env of isolate MGRM-F1-018 (subtype F) (HIV-1)
[34] = biological target: HIV-1 Env of isolate MGRM-F1-004 (subtype F) (HIV-1)
[35] = biological target: HIV-1 Env of isolate MGRM-F1-022 (subtype F) (HIV-1)
[36] = biological target: HIV-1 Env of isolate MGRM-F1-020 (subtype F) (HIV-1)
[37] = biological target: HIV-1 Env of isolate 92TH021 (subtype AE) (HIV-1)
[38] = biological target: HIV-1 Env of isolate MGRM-D-022 (subtype D) (HIV-1)
[39] = biological target: HIV-1 Env of isolate MGRM-D-012 (subtype D) (HIV-1)
[40] = biological target: HIV-1 Env of isolate MGRM-D-008 (subtype D) (HIV-1)
[41] = biological target: HIV-1 Env of isolate VLGCA1 (subtype A) (HIV-1)
[42] = biological target: HIV-1 Env of isolate MGRM-AE-001 (subtype AE) (HIV-1)
[43] = biological target: HIV-1 Env of isolate MGRM-F1-015 (subtype F) (HIV-1)
[44] = biological target: HIV-1 Env of isolate MGRM-AE-004 (subtype AE) (HIV-1)
[45] = biological target: HIV-1 Env of isolate 92UG031 (subtype A) (HIV-1)
[46] = biological target: HIV-1 Env of isolate 92WR026 (subtype A) (HIV-1)
[47] = biological target: HIV-1 Env of isolate MGRM-D-001 (subtype D) (HIV-1)
[48] = biological target: HIV-1 Env of isolate 94UG103 (subtype A) (HIV-1)
[49] = biological target: HIV-1 Env of isolate MGRM-D-011 (subtype D) (HIV-1)
[50] = biological target: HIV-1 Env of isolate MGRM-D-016 (subtype D) (HIV-1)
[51] = biological target: HIV-1 Env of isolate MGRM-D-024 (subtype D) (HIV-1)
[52] = biological target: HIV-1 Env of isolate MGRM-D-004 (subtype D) (HIV-1)
[53] = biological target: HIV-1 Env of isolate MGRM-D-013 (subtype D) (HIV-1)
[54] = biological target: HIV-1 Env of isolate MGRM-F1-021 (subtype F) (HIV-1)
[55] = biological target: HIV-1 Env of isolate MGRM-D-014 (subtype D) (HIV-1)
[56] = biological target: HIV-1 Env of isolate MGRM-F1-012 (subtype F) (HIV-1)
[57] = biological target: HIV-1 Env of isolate 92WR020 (subtype A) (HIV-1)
[58] = biological target: HIV-1 Env of isolate 93WR029 (subtype A) (HIV-1)

Sequence of PGT-141 (4964_G22; 4993_K13) (antibody) (VH): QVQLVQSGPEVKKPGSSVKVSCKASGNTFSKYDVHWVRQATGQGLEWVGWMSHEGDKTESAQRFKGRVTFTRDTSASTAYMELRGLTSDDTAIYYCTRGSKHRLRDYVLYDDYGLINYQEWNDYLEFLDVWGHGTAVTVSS
Sequence of PGT-141 (4964_G22; 4993_K13) (antibody) (VL): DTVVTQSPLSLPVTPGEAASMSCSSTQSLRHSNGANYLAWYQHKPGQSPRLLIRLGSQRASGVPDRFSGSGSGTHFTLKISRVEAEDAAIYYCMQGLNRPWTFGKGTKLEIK

PGT-141 (4964_G22; 4993_K13) (antibody)
IC50 (pseudovirus neutralization) [1]: 5.15 µg/mL | IC50 (pseudovirus neutralization) [2]: > 50 µg/mL | IC50 (pseudovirus neutralization) [3]: > 50 µg/mL | IC50 (pseudovirus neutralization) [4]: 0.175 µg/mL | IC50 (pseudovirus neutralization) [5]: > 50 µg/mL | IC50 (pseudovirus neutralization) [6]: 32.5 µg/mL | IC50 (pseudovirus neutralization) [7]: 0.193 µg/mL | IC50 (pseudovirus neutralization) [8]: 0.057 µg/mL | IC50 (pseudovirus neutralization) [9]: > 50 µg/mL | IC50 (pseudovirus neutralization) [10]: > 50 µg/mL | IC50 (pseudovirus neutralization) [11]: 1.66 µg/mL | IC50 (pseudovirus neutralization) [12]: > 50 µg/mL | IC50 (pseudovirus neutralization) [13]: > 50 µg/mL | IC50 (pseudovirus neutralization) [14]: > 50 µg/mL | IC50 (pseudovirus neutralization) [15]: 30.8 µg/mL | IC50 (pseudovirus neutralization) [16]: 33.1 µg/mL | IC50 (pseudovirus neutralization) [17]: 1.28 µg/mL | IC50 (pseudovirus neutralization) [18]: > 50 µg/mL | IC50 (pseudovirus neutralization) [19]: 0.204 µg/mL | IC50 (pseudovirus neutralization) [20]: > 50 µg/mL | IC50 (pseudovirus neutralization) [21]: 8.99 µg/mL | IC50 (pseudovirus neutralization) [22]: 1 ng/mL | IC50 (pseudovirus neutralization) [23]: 0.307 µg/mL | IC50 (pseudovirus neutralization) [24]: > 50 µg/mL | IC50 (pseudovirus neutralization) [25]: > 50 µg/mL | IC50 (pseudovirus neutralization) [26]: > 50 µg/mL | IC50 (pseudovirus neutralization) [27]: 0.101 µg/mL | IC50 (pseudovirus neutralization) [28]: 0.022 µg/mL | IC50 (pseudovirus neutralization) [29]: > 50 µg/mL | IC50 (pseudovirus neutralization) [30]: > 50 µg/mL | IC50 (pseudovirus neutralization) [31]: > 50 µg/mL | IC50 (pseudovirus neutralization) [32]: 0.043 µg/mL | IC50 (pseudovirus neutralization) [33]: 0.785 µg/mL | IC50 (pseudovirus neutralization) [34]: 0.021 µg/mL | IC50 (pseudovirus neutralization) [35]: 0.114 µg/mL | IC50 (pseudovirus neutralization) [36]: 1.15 µg/mL | IC50 (pseudovirus neutralization) [37]: 1 ng/mL | IC50 (pseudovirus neutralization) [38]: > 50 µg/mL | IC50 (pseudovirus neutralization) [39]: > 50 µg/mL | IC50 (pseudovirus neutralization) [40]: 0.371 µg/mL | IC50 (pseudovirus neutralization) [41]: 2.07 µg/mL | IC50 (pseudovirus neutralization) [42]: > 50 µg/mL | IC50 (pseudovirus neutralization) [43]: > 50 µg/mL | IC50 (pseudovirus neutralization) [44]: 1 ng/mL | IC50 (pseudovirus neutralization) [45]: 0.093 µg/mL | IC50 (pseudovirus neutralization) [46]: 1.78 µg/mL | IC50 (pseudovirus neutralization) [47]: > 50 µg/mL | IC50 (pseudovirus neutralization) [48]: > 50 µg/mL | IC50 (pseudovirus neutralization) [49]: > 50 µg/mL | IC50 (pseudovirus neutralization) [50]: > 50 µg/mL | IC50 (pseudovirus neutralization) [51]: > 50 µg/mL | IC50 (pseudovirus neutralization) [52]: > 50 µg/mL | IC50 (pseudovirus neutralization) [53]: 0.179 µg/mL | IC50 (pseudovirus neutralization) [54]: > 50 µg/mL | IC50 (pseudovirus neutralization) [55]: 0.01 µg/mL | IC50 (pseudovirus neutralization) [56]: > 50 µg/mL | IC50 (pseudovirus neutralization) [57]: > 50 µg/mL | IC50 (pseudovirus neutralization) [58]: 0.019 µg/mL
